Patent US20250154281A1 (Amgen, published 2025)

Assays:
[1] = molecular target: T1, human STEAP1 (Six Trans-membrane Epithelial Antigen of the Prostate 1) (human, UniProt Q9UHE8 1-339); experiment: flow cytometry on C4-2B-Luc cells
Experimental: (§1) C4-2B-Luc cells were incubated with increasing concentrations of Ab-A1 XmAb²⁺¹, Ab-A1 Xmab, Ab-B1 Xmab, Ab-Mx1, Ab-Mx2 and Ab-Mx3 up to […], for 1 hour at 4° C. Cell-bound antibodies were detected by flow cytometry after incubation with an APC-conjugated anti-human IgG secondary antibody and mean fluorescence intensity (MFI) of the APC channel at increasing concentrations of respective antibodies tested.

[2] = molecular target: T1, human STEAP1 (Six Trans-membrane …); experiment: cell-based or functional assay
[3] = molecular target: T1, human STEAP1 (Six Trans-membrane …); experiment: flow cytometry on C4-2B-Luc cells, APC anti-human IgG, MFI
Experimental: as §1

[4] = molecular target: T1, human STEAP1 (Six Trans-membrane …); experiment: cell-based or functional assay; remark: listed apart in the source
[5] = molecular target: T1, human STEAP1 (Six Trans-membrane …); experiment: flow cytometry on C4-2B luc cells, MFI (repeat experiment)
Experimental: The experiment was repeated with Ab-A in various formats (Ab-A (traditional, monospecific antibody, not humanized), Ab-A1 XmAb format, Ab-A1 Xmab²⁺¹ format, and Ab-A2(N67Q) Xmab²⁺¹ format (with N67Q modification)) and Ab-B XmAb format. C4-2B-Luc cells were incubated with increasing concentrations of anti-STEAP1 XmAb or XmAb²⁺¹ molecules up to […], for one hour at 4° C. […] Results are shown in FIGS. 12A-12C and FIG. 13 and Table 4 below.

[6] = molecular target: T2, recombinant human CD3ε-Fc (human, UniProt P07766 23-126); experiment: SPR, CD3ε-Fc immobilized on CM5 chip; ^a data generated using BIAcore
T2 construct: also called human CD3E-Fc; not shown: Fc part
Experimental: (§2) Recombinant human CD3E-Fc and cynomolgus CD3ε-Fc were immobilized on a CM5 chip surface using standard amine coupling procedure at ˜60 RU. Ab-A2(N67Q) XmAb²⁺¹ was injected concentrations of 100, 33.3, 11.1 and 3.7 nM. The association and dissociation rates of Ab-A2(N67Q) XmAb²⁺¹ interaction to the ligands were recorded for 120 sec and 300 sec, respectively, as set forth below in Table 8. The equilibrium dissociation constant (KD) values were derived as a ratio of the dissociation rate constant and the association rate constant (koff/kₒₙ).

[7] = molecular target: T3, recombinant cynomolgus CD3ε-Fc (cynomolgus, UniProt Q95LI5 22-117, limits assumed); experiment: as above
T3 construct: not shown: Fc part
T3 sequence (looked up): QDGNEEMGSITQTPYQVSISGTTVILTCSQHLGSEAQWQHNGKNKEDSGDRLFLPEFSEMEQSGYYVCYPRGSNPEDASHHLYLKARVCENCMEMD
Experimental: as §2

[8] = molecular target: T1, human STEAP1 (Six Trans-membrane …); experiment: cell-based or functional assay; remark: listed apart in the source
[9] = molecular target: T1, human STEAP1 (Six Trans-membrane …); experiment: cell-based or functional assay; remark: listed apart in the source
[10] = molecular target: T1, human STEAP1 (Six Trans-membrane …); experiment: cell-based or functional assay; remark: listed apart in the source
[11] = molecular target: T2, recombinant human CD3ε-Fc; experiment: ^b data generated using Octet
[12] = molecular target: T3, recombinant cynomolgus CD3ε-Fc; experiment: ^b data generated using Octet

T1 sequence (Q9UHE8 whole entry): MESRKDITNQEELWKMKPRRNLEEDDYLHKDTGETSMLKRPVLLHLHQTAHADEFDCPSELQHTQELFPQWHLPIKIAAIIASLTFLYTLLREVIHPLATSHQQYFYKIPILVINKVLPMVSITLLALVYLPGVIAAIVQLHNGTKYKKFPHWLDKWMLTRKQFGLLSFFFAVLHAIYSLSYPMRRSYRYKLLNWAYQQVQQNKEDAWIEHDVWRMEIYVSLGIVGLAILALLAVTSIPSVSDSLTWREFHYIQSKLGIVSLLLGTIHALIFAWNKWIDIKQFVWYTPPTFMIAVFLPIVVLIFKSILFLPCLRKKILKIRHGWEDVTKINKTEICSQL
T2 sequence (P07766 23-126 limits assumed): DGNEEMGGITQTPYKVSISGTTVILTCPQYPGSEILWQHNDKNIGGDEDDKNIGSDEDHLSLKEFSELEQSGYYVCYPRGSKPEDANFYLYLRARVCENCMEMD

B1: Ab-A1 XmAb^2+1 (humanized anti-STEAP1/anti-CD3 heterodimeric antibody) (bispecific antibody)
heavy 1: QVQLVQSGAEVKKPGASVKVSCKASGYTFSTYWIEWVRQAPGQRLEWMGEILPGSGNTDFNEKFQGRVTFTADTSSDTAYMELSSLRSEDTAVYYCTRWGYYGTRGYFNVWGQGTLVTVSSASTKGPSVFPLAPSSKSTSGGTAALGCLVKDYFPEPVTVSWNSGALTSGVHTFPAVLQSSGLYSLSSVVTVPSSSLGTQTYICNVNHKPSNTKVDKKVEPKSCGGGGSGGGGSEVQLVESGGGLVQPGGSLRLSCAASGFTFSTYAMNWVRQAPGKGLEWVGRIRSKYNNYATYYADSVKGRFTISRDDSKNTLYLQMNSLRAEDTAVYYCVRHGNFGDSYVSWFAYWGQGTLVTVSSGKPGSGKPGSGKPGSGKPGSQAVVTQEPSLTVSPGGTVTLTCGSSTGAVTTSNYANWVQQKPGKSPRGLIGGTNKRAPGVPARFSGSLLGGKAALTISGAQPEDEADYYCALWYSNHWVFGGGTKLTVLGGGGSGGGGSKTHTCPPCPAPPVAGPSVFLFPPKPKDTLMISRTPEVTCVVVDVKHEDPEVKFNWYVDGVEVHNAKTKPREEQYNSTYRVVSVLTVLHQDWLNGKEYKCKVSNKALPAPIEKTISKAKGQPREPQVYTLPPSREQMTKNQVKLTCLVKGFYPSDIAVEWESNGQPENNYKTTPPVLDSDGSFFLYSKLTVDKSRWQQGNVFSCSVMHEALHNHYTQKSLSLSPGK
heavy 2: QVQLVQSGAEVKKPGASVKVSCKASGYTFSTYWIEWVRQAPGQRLEWMGEILPGSGNTDFNEKFQGRVTFTADTSSDTAYMELSSLRSEDTAVYYCTRWGYYGTRGYFNVWGQGTLVTVSSASTKGPSVFPLAPSSKSTSGGTAALGCLVKDYFPEPVTVSWNSGALTSGVHTFPAVLQSSGLYSLSSVVTVPSSSLGTQTYICNVNHKPSDTKVDKKVEPKSCDKTHTCPPCPAPPVAGPSVFLFPPKPKDTLMISRTPEVTCVVVDVKHEDPEVKFNWYVDGVEVHNAKTKPREEEYNSTYRVVSVLTVLHQDWLNGKEYKCKVSNKALPAPIEKTISKAKGQPREPQVYTLPPSREEMTKNQVSLTCDVSGFYPSDIAVEWESDGQPENNYKTTPPVLDSDGSFFLYSKLTVDKSRWEQGDVFSCSVMHEALHNHYTQKSLSLSPGK
light: EIVLTQSPATLSLSPGERATLSCRASSSVSYMHWFQQKPGQAPRLLIYSTSNLASGIPARFSGSGSGTDYTLTISSLEPEDFAVYYCQQRRSFPYTFGQGTKLEIKRTVAAPSVFIFPPSDEQLKSGTASVVCLLNNFYPREAKVQWKVDNALQSGNSQESVTEQDSKDSTYSLSSTLTLSKADYEKHKVYACEVTHQGLSSPVTKSFNRGEC
notes: XmAb^2+1 format: first monomer VH-CH1-(anti-CD3 scFv)-Fc, second monomer VH-CH1-Fc, common light chain; two STEAP1 Fabs and one CD3 scFv; monomers 19 or 20 / 18 or 199 / light 17; scFv 44; also called XmAb^2+1 Ab-A1; copies: 1 + 1 + 2
[1]
  fold lower binding EC50 than Ab-A1 Xmab: 65 fold
[2]
  TDCC EC50: 6 pM
[3]
  EC50: 2200 pM
[4]
  TDCC EC50, C4-2B luc cells: 6.3 pM
[5]
  EC50: 2200 pM

B2: Ab-A2(N67Q) XmAb^2+1 (variant of Ab-A1 XmAb^2+1 having a N67Q modification) (bispecific antibody)
heavy 1: QVQLVQSGAEVKKPGASVKVSCKASGYTFSTYWIEWVRQAPGQRLEWMGEILPGSGQTDFNEKFQGRVTFTADTSSDTAYMELSSLRSEDTAVYYCTRWGYYGTRGYFNVWGQGTLVTVSSASTKGPSVFPLAPSSKSTSGGTAALGCLVKDYFPEPVTVSWNSGALTSGVHTFPAVLQSSGLYSLSSVVTVPSSSLGTQTYICNVNHKPSNTKVDKKVEPKSCGGGGSGGGGSEVQLVESGGGLVQPGGSLRLSCAASGFTFSTYAMNWVRQAPGKGLEWVGRIRSKYNNYATYYADSVKGRFTISRDDSKNTLYLQMNSLRAEDTAVYYCVRHGNFGDSYVSWFAYWGQGTLVTVSSGKPGSGKPGSGKPGSGKPGSQAVVTQEPSLTVSPGGTVTLTCGSSTGAVTTSNYANWVQQKPGKSPRGLIGGTNKRAPGVPARFSGSLLGGKAALTISGAQPEDEADYYCALWYSNHWVFGGGTKLTVLGGGGSGGGGSKTHTCPPCPAPPVAGPSVFLFPPKPKDTLMISRTPEVTCVVVDVKHEDPEVKFNWYVDGVEVHNAKTKPCEEQYGSTYRCVSVLTVLHQDWLNGKEYKCKVSNKALPAPIEKTISKAKGQPREPQVYTLPPSREQMTKNQVKLTCLVKGFYPSDIAVEWESNGQPENNYKTTPPVLDSDGSFFLYSKLTVDKSRWQQGNVFSCSVMHEALHNHYTQKSLSLSPGK
heavy 2: QVQLVQSGAEVKKPGASVKVSCKASGYTFSTYWIEWVRQAPGQRLEWMGEILPGSGQTDFNEKFQGRVTFTADTSSDTAYMELSSLRSEDTAVYYCTRWGYYGTRGYFNVWGQGTLVTVSSASTKGPSVFPLAPSSKSTSGGTAALGCLVKDYFPEPVTVSWNSGALTSGVHTFPAVLQSSGLYSLSSVVTVPSSSLGTQTYICNVNHKPSDTKVDKKVEPKSCDKTHTCPPCPAPPVAGPSVFLFPPKPKDTLMISRTPEVTCVVVDVKHEDPEVKFNWYVDGVEVHNAKTKPCEEEYGSTYRCVSVLTVLHQDWLNGKEYKCKVSNKALPAPIEKTISKAKGQPREPQVYTLPPSREEMTKNQVSLTCDVSGFYPSDIAVEWESDGQPENNYKTTPPVLDSDGSFFLYSKLTVDKSRWEQGDVFSCSVMHEALHNHYTQKSLSLSPGK
light: EIVLTQSPATLSLSPGERATLSCRASSSVSYMHWFQQKPGQAPRLLIYSTSNLASGIPARFSGSGSGTDYTLTISSLEPEDFAVYYCQQRRSFPYTFGQGTKLEIKRTVAAPSVFIFPPSDEQLKSGTASVVCLLNNFYPREAKVQWKVDNALQSGNSQESVTEQDSKDSTYSLSSTLTLSKADYEKHKVYACEVTHQGLSSPVTKSFNRGEC
notes: XmAb^2+1 format (two STEAP1 Fabs, one anti-CD3 scFv); monomers 19 or 20 / 18 or 199 / light 17; scFv 44; also called Ab-A2 XmAb^2+1; copies: 1 + 1 + 2
[6]
  Kd: 16300 pM
[7]
  Kd: 15100 pM
[8]
  TDCC EC50, 22RV-1 cells: 257 pM
  TDCC EC50, C4-2B cells: 6.8 pM
  TDCC EC50, HBSMC cells: 1520 pM
  TDCC EC50, HCT116 cells: 336 pM
  TDCC EC50, HUCCT1 cells: > 10000 pM
  TDCC EC50, IM-95 cells: 345 pM
  TDCC EC50, LOX-IMVI cells: 36.6 pM
  TDCC EC50, NCIH1869 cells: > 10000 pM
  TDCC EC50, PC3 cells: > 10000 pM
  TDCC EC50, SK-N-MC cells: 10.4 pM
  TDCC EC50, SNU5 cells: 6.2 pM
  TDCC EC50, TYKNU cells: 1720 pM
  TDCC EC50, VCaP cells: 722 pM
[9]
  TDCC EC50, A673 cells: 122 pM
  TDCC EC50, EBC1 cells: 162 pM
  TDCC EC50, OE33 cells: 145 pM
[10]
  TDCC EC50, 293T cells stably transfected with human STEAP1: 0.1 pM
[11]
  Kd: 27600 pM
[12]
  Kd: 25800 pM
[4]
  TDCC EC50, C4-2B luc cells: 5.4 pM
[5]
  EC50: 1200 pM
